Among the data in US20220298258A1 (Bristol-Myers Squibb, published 2022) are IC50 values, retold here.

Experiment [1] concerns the target Human PSGL-1 (P-Selectin Glycoprotein Ligand 1) on primary human T cells / PBMC lymphocytes (human) (UniProt Q14242). The experiment is described as follows: flow cytometry; inhibition of VISTA dextramer binding to activated human CD4+ T cells, pH 6.0.
In experiment [2] the target is T1, fluorescently-conjugated human VISTA dextramer (a streptavidin dextramer loaded with monobiotinylated … (human, UniProt Q9H7M9 33-194, monobiotinylated (avi-tagged in Example 6); loaded on a fluorescently-conjugated streptavidin dextramer).
T1 construct: Multimeric reagent: many biotinylated VISTA molecules on a streptavidin dextramer; also called VISTA dextramers; dextramer loaded with recombinant human avi-tagged VISTA
T1 sequence (looked up): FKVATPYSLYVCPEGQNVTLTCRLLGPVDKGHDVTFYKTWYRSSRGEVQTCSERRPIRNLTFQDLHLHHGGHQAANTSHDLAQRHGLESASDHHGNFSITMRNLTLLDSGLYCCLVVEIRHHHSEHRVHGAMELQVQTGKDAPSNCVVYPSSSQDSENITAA
Described as above. The protocol: The ability of soluble PSGL-1 to disrupt VISTA dextramer binding to T cells was assessed by incubating activated T cells with fluorescently-conjugated VISTA dextramers (a streptavidin dextramer loaded with a sub-optimal molar ratio of monobiotinylated recombinant human VISTA molecules) in Hanks's Balanced Salt Solution at pH 6.0 and in the presence of titrated concentrations of a control (i.e., non-VISTA or PSGL-1 specific) antibody (dots), recombinant human PSGL-1-Fc fusion protein (triangles), or recombinant human P-selectin (R&D Systems, diamonds). The recombinant human PSGL-1 Fc fusion molecule was obtained from R&D Systems Catalog No. 3345-PS, and comprises the PSGL-1 ECD sequence shown in SEQ ID NO: 18, comprising positions 42-295 of a human PSGL-1 sequence of accession number AA50061 coupled at its C-terminal to an IEGRMD linker sequence (SEQ ID NO: 19) followed by amino acids P100 to K330 of human IgG1. After incubation, the binding of the VISTA dextramer to the T cells was measured by flow cytometry. IC50 values were calculated via nonlinear regression in Prism software (GraphPad). The results, which are shown in FIG. 3 and Table 1, indicate that PSGL-1 and P-selectin inhibit binding of VISTA to the activated CD4+ T cells in a dose dependent manner at acidic pH.

As for “recombinant human P-selectin (R&D Systems) (from UniProt P16109 42-771) (receptor)”, the IC50 in experiment [1] was determined as 101 nM.

B1: recombinant human PSGL-1-Fc fusion protein (R&D Systems Catalog No. 3345-PS) (Fc fusion)
chain: QATEYEYLDYDFLPETEPPEMLRNSTDTTPLTGPGTPESTTVEPAARRSTGLDAGGAVTELTTELANMGNLSTDSAAMEIQTTQPAATEAQTTPLAATEAQTTRLTATEAQTTPLAATEAQTTPPAATEAQTTQPTGLEAQTTAPAAMEAQTTAPAAMEAQTTPPAAMEAQTTQTTAMEAQTTAPEATEAQTTQPTATEAQTTPLAAMEALSTEPSATEALSMEPTTKRGLFIPFSVSSVTHKGIPMAASNLSVIEGRMD
notes: Bought reagent; also called hPSGL-1-Fc; humPSGL-1-Fc; not shown: human IgG1, amino acids P100 to K330
Turning to B1, the IC50 in experiment [2] is 20.5 nM.
